Data published in patent US20240018237A1 (SICHUAN KELUN BIOTECH BIOPHARMACEUTICAL, published 2024).
Values belong to the binder of their own block, whether it stands above or below them.

What was measured:
[1] = target: T1, human ROR1 (full-length, on the cell surface) (human, UniProt Q01973 30-937); assay: cell-based or functional assay
[2] = target: T2, human ROR2 extracellular domain (ECD) protein (human, UniProt Q01974 34-403); assay: ELISA on coated human ROR2 ECD protein (1 ug/mL), OD at 450 nm
T2 construct: extracellular domain; Bought protein; also called human ROR2 ECD protein; Sino Biologicals 16133-H08H
Method: It was confirmed by ELISA using extracellular domain (ECD) protein of human ROR2 that the binding specificity of the candidate antibodies to human ROR1 was higher than that of human ROR2. The specific method was as follows: 1 μg/mL human ROR2 extracellular domain (ECD) protein (Sino Biologicals, Cat. No.: 16133-H08H) was added in a 96-well ELISA plate (Thermo Fisher, Cat. No.: 5129) at 100 μL/well, for coating overnight at 4° C. 200 μL of washing buffer (1×TBS containing 0.05% Tween-20) was used to wash 3 times, different concentrations of eight purified mouse-anti-human ROR1 candidate antibodies and UC961 were added at 100 μL, incubated at 37° C. for 1 hour, and mouse-anti-human ROR2 antibody (R&D systems, Cat. No.: MAB2064) was used as a positive control. Washing was performed 3 times with 200 μL of washing buffer, 100 μL of anti-human IgG (Rockland Inc, Cat. No. 609-1304) or anti-mouse IgG secondary antibody (Rockland Inc, Cat. No. 610-1304) diluted at a ratio of 1:10000 were added to each well, incubated at 37° C. for 1 hour. Washing was performed 3 times with 200 μL of washing buffer, 100 μL of TMB (Thermo Fisher, Cat. No.: TMBW-1000-01) was added for color development in the dark for 10 minutes, then 100 μL of stop solution (Thermo Fisher, Cat. No.: 13361-100-10) was added to stop the color development, and reading was carried out by microplate reader at 450 nm.

[3] = target: T1, human ROR1 (full-length, on the cell …); assay: flow cytometry on A549 cells, MFI against antibody concentration
From the text: (§1) The affinity of the candidate antibodies to ROR1 on the surface of human cells was detected by flow cytometry. In addition to the Ba/F3-ROR1 overexpression cells, human mantle cell lymphoma cell line Jeko-1 (ATCC, Cat. No.: CRL-3006), human colon cancer cell line HT-29 (ATCC, Cat. No.: HTB-38), human lung cancer cell line A549 (ATCC, Cat. No.: CCL-185) were also used for the binding assay. The anti-human ROR1 antibody UC961 (for sequence, see WO2018237335A1) with mouse or human IgG1 Fc was used as a positive control, and the anti-2,4,6-trinitrophenol antibody (ATCC) with the corresponding mouse or human IgG1 Fc was used as a negative control. Mouse IgG isotype control (Thermo Fisher, Cat. No.: 31903) was also used as a negative control.

[4] = target: T1, human ROR1 (full-length, on the cell …); assay: flow cytometry on Jeko-1 cells, MFI against antibody concentration
From the text: as §1

[5] = target: T1, human ROR1 (full-length, on the cell …); assay: flow cytometry on Ba/F3-ROR1 cells, MFI against antibody concentration
From the text: as §1

[6] = target: T1, human ROR1 (full-length, on the cell …); assay: flow cytometry on HT29 cells, MFI against antibody concentration
From the text: as §1

[7] = target: human ROR1 (full-length, on the cell surface) (human) (UniProt Q01973); assay: cell-based or functional assay
[8] = target: human ROR1 (full-length, on the cell surface) (human) (UniProt Q01973); assay: flow cytometry, A549 cells (Table 5-2)
[9] = target: human ROR1 (full-length, on the cell surface) (human) (UniProt Q01973); assay: flow cytometry, A549 cells (Table 5-3)
[10] = target: human ROR1 (full-length, on the cell surface) (human) (UniProt Q01973); assay: flow cytometry, A549 cells (Table 5-1A)
[11] = target: human ROR1 (full-length, on the cell surface) (human) (UniProt Q01973); assay: flow cytometry, A549 cells (Table 5-1B)
[12] = target: human ROR1 (full-length, on the cell surface) (human) (UniProt Q01973); assay: flow cytometry, HT-29 cells (Table 5-2)
[13] = target: human ROR1 (full-length, on the cell surface) (human) (UniProt Q01973); assay: flow cytometry, HT-29 cells (Table 5-3)
[14] = target: human ROR1 (full-length, on the cell surface) (human) (UniProt Q01973); assay: flow cytometry, HT-29 cells (Table 5-1A)
[15] = target: human ROR1 (full-length, on the cell surface) (human) (UniProt Q01973); assay: flow cytometry, HT-29 cells (Table 5-1B)
[16] = target: human ROR1 (full-length, on the cell surface) (human) (UniProt Q01973); assay: flow cytometry, Jeko-1 cells (Table 5-2)
[17] = target: human ROR1 (full-length, on the cell surface) (human) (UniProt Q01973); assay: flow cytometry, Jeko-1 cells (Table 5-3)
[18] = target: human ROR1 (full-length, on the cell surface) (human) (UniProt Q01973); assay: flow cytometry, Jeko-1 cells (Table 5-1A)
[19] = target: human ROR1 (full-length, on the cell surface) (human) (UniProt Q01973); assay: flow cytometry, Jeko-1 cells (Table 5-1B)
[20] = target: human ROR1 (full-length, on the cell surface) (human) (UniProt Q01973); assay: flow cytometry, Ba/F3-ROR1 cells (Table 5-2)
[21] = target: human ROR1 (full-length, on the cell surface) (human) (UniProt Q01973); assay: flow cytometry, Ba/F3-ROR1 cells (Table 5-3)
[22] = target: human ROR1 (full-length, on the cell surface) (human) (UniProt Q01973); assay: flow cytometry, Ba/F3-ROR1 cells (Table 5-1A)
[23] = target: human ROR1 (full-length, on the cell surface) (human) (UniProt Q01973); assay: flow cytometry, Ba/F3-ROR1 cells (Table 5-1B)
[24] = target: human ROR1 (full-length, on the cell surface) (human) (UniProt Q01973); assay: flow cytometry, A549 cells; average of two measurements
[25] = target: human ROR1 (full-length, on the cell surface) (human) (UniProt Q01973); assay: flow cytometry, HT-29 cells; average of two measurements
[26] = target: human ROR1 (full-length, on the cell surface) (human) (UniProt Q01973); assay: flow cytometry, Jeko-1 cells; average of two measurements
[27] = target: human ROR1 (full-length, on the cell surface) (human) (UniProt Q01973); assay: flow cytometry, Ba/F3-ROR1 cells; average of two measurements
[28] = target: human ROR1 (full-length, on the cell surface) (human) (UniProt Q01973); assay: flow cytometry on A549 cells, MFI against antibody concentration
[29] = target: human ROR1 (full-length, on the cell surface) (human) (UniProt Q01973); assay: flow cytometry on Ba/F3-ROR1 cells, MFI against antibody concentration
[30] = target: human ROR1 (full-length, on the cell surface) (human) (UniProt Q01973); assay: as above; remark: listed apart in the source
[31] = target: human ROR1 ECD protein (human) (UniProt Q01973); assay: BLI (Octet), antibody on AHC sensor, ROR1 ECD in solution; average of two measurements
[32] = target: human ROR1 ECD protein (human) (UniProt Q01973); assay: BLI (Octet), antibody on AHC sensor, ROR1 ECD in solution; average of three determinations

T1 sequence (Q01973 30-937): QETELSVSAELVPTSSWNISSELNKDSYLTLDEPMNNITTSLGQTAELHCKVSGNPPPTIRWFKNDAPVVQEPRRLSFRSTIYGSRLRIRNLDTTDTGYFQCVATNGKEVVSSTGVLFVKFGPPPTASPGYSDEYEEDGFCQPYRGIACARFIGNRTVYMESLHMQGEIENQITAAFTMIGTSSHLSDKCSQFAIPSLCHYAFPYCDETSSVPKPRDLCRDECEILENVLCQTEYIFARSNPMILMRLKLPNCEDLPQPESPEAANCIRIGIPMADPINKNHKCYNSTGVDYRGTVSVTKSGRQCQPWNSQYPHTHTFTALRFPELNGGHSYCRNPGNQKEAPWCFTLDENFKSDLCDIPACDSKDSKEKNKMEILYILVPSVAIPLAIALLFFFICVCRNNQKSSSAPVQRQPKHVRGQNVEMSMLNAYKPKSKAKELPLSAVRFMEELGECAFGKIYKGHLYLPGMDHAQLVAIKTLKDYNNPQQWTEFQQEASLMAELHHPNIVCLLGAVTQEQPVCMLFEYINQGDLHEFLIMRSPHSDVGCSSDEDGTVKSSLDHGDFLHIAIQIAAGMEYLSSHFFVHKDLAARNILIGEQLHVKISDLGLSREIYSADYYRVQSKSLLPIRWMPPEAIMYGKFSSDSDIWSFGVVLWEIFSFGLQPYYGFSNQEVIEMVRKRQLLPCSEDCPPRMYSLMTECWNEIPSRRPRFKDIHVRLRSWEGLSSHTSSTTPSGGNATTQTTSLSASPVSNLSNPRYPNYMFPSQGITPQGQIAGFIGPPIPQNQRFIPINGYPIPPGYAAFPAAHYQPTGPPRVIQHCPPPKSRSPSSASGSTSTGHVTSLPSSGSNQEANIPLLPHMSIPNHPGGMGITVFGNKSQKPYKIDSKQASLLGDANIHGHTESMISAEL
human ROR1 (full-length, on the cell surface) (human), sequence (Q01973 30-937): as above
human ROR1 ECD protein (human), sequence (Q01973 30-406): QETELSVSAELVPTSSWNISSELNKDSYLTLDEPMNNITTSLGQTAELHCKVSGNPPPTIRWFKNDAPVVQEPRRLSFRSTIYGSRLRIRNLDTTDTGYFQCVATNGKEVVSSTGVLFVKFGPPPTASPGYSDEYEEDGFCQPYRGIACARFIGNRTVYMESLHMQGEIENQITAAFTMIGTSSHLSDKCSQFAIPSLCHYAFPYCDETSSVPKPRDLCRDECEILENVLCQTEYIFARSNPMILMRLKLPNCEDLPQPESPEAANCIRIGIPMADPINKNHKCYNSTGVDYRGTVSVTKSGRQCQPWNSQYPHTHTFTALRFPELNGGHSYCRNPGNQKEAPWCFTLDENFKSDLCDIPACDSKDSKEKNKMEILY
T2 sequence (Q01974 34-403): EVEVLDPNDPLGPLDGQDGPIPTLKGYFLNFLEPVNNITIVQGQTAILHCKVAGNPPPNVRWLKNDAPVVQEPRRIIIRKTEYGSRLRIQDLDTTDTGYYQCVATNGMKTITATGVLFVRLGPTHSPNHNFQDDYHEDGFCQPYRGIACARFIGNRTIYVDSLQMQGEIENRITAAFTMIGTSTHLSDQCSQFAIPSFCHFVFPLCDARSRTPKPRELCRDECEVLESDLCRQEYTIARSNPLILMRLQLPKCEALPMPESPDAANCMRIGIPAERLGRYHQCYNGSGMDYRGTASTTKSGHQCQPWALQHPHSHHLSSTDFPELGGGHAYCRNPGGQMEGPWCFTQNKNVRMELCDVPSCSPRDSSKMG

activity of inducing internalization on Jeko-1 cells (Mab-ZAP, by IC50), fold over UC961 [1]: 3.8 fold
binding result [2]: no binding (tested: about 5000 ng/ml)
EC50 (read off the curve) [3]: ~0.03 µg/mL
EC50 (read off the curve) [4]: ~0.02 µg/mL
EC50 (read off the curve) [5]: ~0.06 µg/mL
B1: Murine antibody 3D8.2.3 (antibody, V domains shown)
VH: EVKLVESGGGLVKPGGSLKLSCAASGFTFSSYAMSWVRQTPEKRLEWVASINSGGSTYYPDSVKGRFTISRDNARNILYLQMSSLRSEDTAMYYCARVNYYGYGDYAMDYWGQGTSVTVSS
VL: DIKMTQSPSSMYASLGERVTITCKASQDINSYLSWFQQKPGKSPKTLIYRANRLVDGVPSRFSGSGSGQDYSLTISSLEYEDMGIYYCLQYDEFPYTFGGGTNLEIK
notes: Hybridoma antibody

activity of inducing internalization on Jeko-1 cells (Mab-ZAP, by IC50), fold over UC961 [1]: 5.3 fold
binding result [2]: no binding (tested: about 5000 ng/ml)
EC50 (read off the curve) [6]: ~0.04 µg/mL
EC50 (read off the curve) [4]: ~0.03 µg/mL
EC50 (read off the curve) [5]: ~0.06 µg/mL
B2: Murine antibody 38F8.1.1 (antibody, V domains shown)
VH: EVKLVESGGDLVKPGGSLKLSCTASGFTFSNYAMSWVRQTPEKRLEWVASISSGGPTYYPDSVKGRFTVSRDNARNILYLQMSSLRSEDTAMYYCARGYRYDVNWYFDVWGAGTSVTVSS
VL: DIKMTQSPSSMYASLGERVTITCKASQDINSYLTWFQQKPGKSPKTLIHRANRLVDGVPSRFSGSGSGQDYSLTISSLEYEDMGIYYCLQYDEFPYTFGGGTKLEIK
notes: Hybridoma antibody

EC50 [8]: 0.46 nM
EC50 [9]: 0.21 nM
EC50 [10]: 0.41 nM
EC50 [11]: 0.16 nM
EC50 [12]: 0.21 nM
EC50 [13]: 0.37 nM
EC50 [14]: 0.12 nM
EC50 [15]: 0.2 nM
EC50 [16]: 0.14 nM
EC50 [17]: 0.06 nM
EC50 [18]: 0.22 nM
EC50 [19]: 0.36 nM
EC50 [20]: 0.31 nM
EC50 [21]: 1.07 nM
EC50 [22]: 0.62 nM
EC50 [23]: 0.3 nM
EC50 [24]: 0.277 nM
EC50 [25]: 0.267 nM
EC50 [26]: 0.447 nM
EC50 [27]: 0.44 nM
EC50 (read off the curve) [28]: 0.01 µg/mL
EC50 (read off the curve) [29]: 0.05 µg/mL
EC50 (read off the curve) [30]: 0.07 µg/mL
Kd [31]: 15.8 nM
koff [31]: 0.0137 s⁻¹
kon [31]: 981000 M⁻¹ s⁻¹
Kd [32]: 8.73 nM
koff [32]: 0.0112 s⁻¹
kon [32]: 1.26e+06 M⁻¹ s⁻¹
B3: anti-human ROR1 antibody UC961 (antibody, from another filing, V domains shown)
VH: QVQLQESGPGLVKPSQTLSLTCTVSGYAFTAYNIHWVRQAPGQGLEWMGSFDPYDGGSSYNQKFKDRLTISKDTSKNQVVLTMTNMDPVDTATYYCARGWYYFDYWGHGTLVTVSS
VL: DIVMTQTPLSLPVTPGEPASISCRASKSISKYLAWYQQKPGQAPRLLIYSGSTLQSGIPPRFSGSGYGTDFTLTINNIESEDAAYYFCQQHDESPYTFGEGTKVEIK
EC50 of ADCC killing of Ba/F3-ROR1 cells by NK92MI-mCD16a-hFceRI cells [7]: 0.33 nM
